Data as given in publication PMC10184639.

Target: biotinylated CH848 DS SOSIP Trimer (HIV-1)
Assay: SPR

B1: DH270.I5.6 Fab (Fab, V domains shown)
VH: QVQLVQSGAEVKKPGASVKVSCKASGYTFTDYYIHWVRQAPGQGLEWMGWINPNTGRTNSAQKFQGRVTMTRDTSISTAYMELSRLRSDDTAVYYCARGGWIGLYYDSSGYPNFDYWGQGTLVTVSS
VL: QSALTQPASVSGSPGQSITISCTGTSYDVGSYNLVSWYQQHPGKAPKLMIYEVSKRPSGVSNRFSGSKSGNTASLTISGLQAEDEADYYCCSYAGSSTVVFGGGTKLTVL
Question: How did the fold improvement of the binding affinity relative to the UCA turn out when B1 was run?
Answer: The fold improvement of the binding affinity relative to the UCA was 8 fold.
